Data: the RNAGym collection of RNA variant scans (doi:10.7554/elife.90254)

B1: OR4K15 (parent)
chain: GUUAACGGUCAUAGGCCAUGGAAACUAGGAGCACCAUUUCGCUGCCAGUGAAGAAAUGAACAAAGAAAAUCUGGGCCAGGCAGGCAUCAAAAGAAAUAGUCUUGCGCUCAACCAGAAAGUCUGUAAUCAUUUUAAGGGUA

Variants of: B1
Experiment: self-cleavage, relative activity (ratio to wild type); higher = more cleavage; in vitro, sequencing; the parent is a self-cleaving ribozyme

Row | Variant | self-cleavage
1 | GUUAACGGUCAUAGGCCAUGGAAACUAGGAGCACCAUUUCGCUGUCAGUGAAGAAAUGAACAAAGAAGAUCUGGGCCAGGCAGGCAUCAAAAGAAAUAGUCUUGCGCUCAACCAGAAAGUCUGUAAUCAUUUUAAGGGUA [C45U A68G] | 1.96
2 | GUUAACGGUCAUAGGCCAUGGAAACUAGGAGCACCAUUUCGCUGACAGUGAAGAAAUGAACAAAGAAAAUCUGGGCCAGGCAGGCAUCAAAAGAAAUAGUCUUGCGCUCAACCAGAAAGACUGUAAUCAUUUUAAGGGUA [C45A U120A] | 2.12
3 | GUUAACGGUCAUAGGCCAUGGAAACUAGGAGCACCAUUUCGCUGCAAGUGAAGAAAUGAACAAAGAAAAUCUGGGCCAGGCAGGCAUCAAAAGAAAUAGUCUUGCGCUCAACCAGAAAGUCUGUAAUCAUUUUGAGGGUA [C46A A134G] | 1.14
4 | GUUAACGGUCAUAGGCCAUGGAAACUAGGAGCACCAUUUCGCUGACAGUGGAGAAAUGAACAAAGAAAAUCUGGGCCAGGCAGGCAUCAAAAGAAAUAGUCUUGCGCUCAACCAGAAAGUCUGUAAUCAUUUUAAGGGUA [C45A A51G] | 1.35
5 | GUUAACGGUCAUAGGCCAUGGAAACUAGGAGCACCAUUUCGCUGUCAGUGAAGAAAUGAACAAAGAAAAUCUGGGCAAGGCAGGCAUCAAAAGAAAUAGUCUUGCGCUCAACCAGAAAGUCUGUAAUCAUUUUAAGGGUA [C45U C77A] | 0.42
6 | GUUAACGGUCAUAGGCCAUGGAAACUAGGAGCACCAUUUCGCUUCCAGUGAAGAAAUGAACAAAGAAAAACUGGGCCAGGCAGGCAUCAAAAGAAAUAGUCUUGCGCUCAACCAGAAAGUCUGUAAUCAUUUUAAGGGUA [G44U U70A] | 0
7 | GUUAACGGUCAUAGGCCAUGGAAACUAGGAGCACCAUUUCGCUGUCAGUGAAGAAAUGAACAAAGAAAAUCUGGGCCAGGCAGGCAUCAAAAGAAAUAGUCUUGCGCUCAACCAGAAAGUCUGUAAUCAUUAUAAGGGUA [C45U U132A] | 1.05
8 | GUUAACGGUCAUAGGCCAUGGAAACUAGGAGCACCAUUUCGCUGUCAGUGAAGAAAUGAACAAAGAAAAUCUGGGCCAGGCAGGCAUCAAAAGAAAUAGUCUUGCGCUCAACCAGAAAGUCUGUAAUCAUUCUAAGGGUA [C45U U132C] | 0.61
9 | GUUAACGGUCAUAGGCCAUGGAAACUAGGAGCACCAUUUCGCUGACAGUGAAGAAAUGAACAAAGAAAAUCUGGGCCAGGCAGGCAUCAAAAGAAAUAGUCUUGCGCUCAACCGGAAAGUCUGUAAUCAUUUUAAGGGUA [C45A A114G] | 0.06
10 | GUUAACGGUCAUAGGCCAUGGAAACUAGGAGCACCAUUUCGCUGCUAGUGAAGAGAUGAACAAAGAAAAUCUGGGCCAGGCAGGCAUCAAAAGAAAUAGUCUUGCGCUCAACCAGAAAGUCUGUAAUCAUUUUAAGGGUA [C46U A55G] | 1.14
11 | GUUAACGGUCAUAGGCCAUGGAAACUAGGAGCACCAUUUCGCUGCUGGUGAAGAAAUGAACAAAGAAAAUCUGGGCCAGGCAGGCAUCAAAAGAAAUAGUCUUGCGCUCAACCAGAAAGUCUGUAAUCAUUUUAAGGGUA [C46U A47G] | 0.79
12 | GUUAACGGUCAUAGGCCAUGGAAACUAGGAGCACCAUUUCGCUGCAAGUGAAGAAGUGAACAAAGAAAAUCUGGGCCAGGCAGGCAUCAAAAGAAAUAGUCUUGCGCUCAACCAGAAAGUCUGUAAUCAUUUUAAGGGUA [C46A A56G] | 1.81
13 | GUUAACGGUCAUAGGCCAUGGAAACUAGGAGCACCAUUUCGCUGUCAGUGAAGAAAUGAACAAAGAGAAUCUGGGCCAGGCAGGCAUCAAAAGAAAUAGUCUUGCGCUCAACCAGAAAGUCUGUAAUCAUUUUAAGGGUA [C45U A67G] | 1.94
14 | GUUAACGGUCAUAGGCCAUGGAAACUAGGAGCACCAUUUCGCUGGCAGUGAAGAAAUGAACAAAGAAAAUCUGGGCCAGGCAGGCAUCAGAAGAAAUAGUCUUGCGCUCAACCAGAAAGUCUGUAAUCAUUUUAAGGGUA [C45G A90G] | 1.2
15 | GUUAACGGUCAUAGGCCAUGGAAACUAGGAGCACCAUUUCGCUGCAAGUGAAGAAAUGAACAAAGAAAAUCUGGGCCAGGCAGGCAUCAAAAGAAAUAGUCUUGCGCUCAAUCAGAAAGUCUGUAAUCAUUUUAAGGGUA [C46A C112U] | 0.01
16 | GUUAACGGUCAUAGGCCAUGGAAACUAGGAGCACCAUUUCGCUGACAGUGAAGAAAUGAACAAAGAAAAUCUGGGCCAGGCAGGCAUCAAAAGAAAUAGUCUUGCGCUCAACCAGAGAGUCUGUAAUCAUUUUAAGGGUA [C45A A117G] | 2.96
17 | GUUAACGGUCAUAGGCCAUGGAAACUAGGAGCACCAUUUCGCUGACAGUGAAGAAAUGAACAAAGAAAAUCUGGGCCAGGCAGGCAUCAAAAGAAAUAGUCUUGCGCUCAACCAGAAAGUCUGUAAUCAUCUUAAGGGUA [C45A U131C] | 0.26
18 | GUUAACGGUCAUAGGCCAUGGAAACUAGGAGCACCAUUUCGCUUCCAGUGAAGAAAUGAACAAAGAAAAUCUGGGCCAGGCAGGCAUCAAAAGAAAUAGUCUUGCGCUCAACCAGAAAGUCUGUAAUCAUUUUAAGUGUA [G44U G137U] | 1.87
19 | GUUAACGGUCAUAGGCCAUGGAAACUAGGAGCACCAUUUCGCUGUCAGUGAAGAAAUGAACAAAGAAAAUCUGGGCCAGGCAGGCAUCAAAAGAAAUAGUCUUGCGCUCAACCAGAAAGUCUGUAACCAUUUUAAGGGUA [C45U U127C] | 0.56
20 | GUUAACGGUCAUAGGCCAUGGAAACUAGGAGCACCAUUUCGCUGUCAGUGAAGAAAUGAACAAAGAAAAUCUGGGCCUGGCAGGCAUCAAAAGAAAUAGUCUUGCGCUCAACCAGAAAGUCUGUAAUCAUUUUAAGGGUA [C45U A78U] | 0.33
21 | GUUAACGGUCAUAGGCCAUGGAAACUAGGAGCACCAUUUCGCUGUCAAUGAAGAAAUGAACAAAGAAAAUCUGGGCCAGGCAGGCAUCAAAAGAAAUAGUCUUGCGCUCAACCAGAAAGUCUGUAAUCAUUUUAAGGGUA [C45U G48A] | 1.78

Row | Variant | self-cleavage
22 | GUUAACGGUCAUAGGCCAUGGAAACUAGGAGCACCAUUUCGCUGCAAGUGAAGAAAUGAGCAAAGAAAAUCUGGGCCAGGCAGGCAUCAAAAGAAAUAGUCUUGCGCUCAACCAGAAAGUCUGUAAUCAUUUUAAGGGUA [C46A A60G] | 0.67
23 | GUUAACGGUCAUAGGCCAUGGAAACUAGGAGCACCAUUUCGCUGACAGUGAAGAAAUGAACAAAGAAAAUCUGGGCCAGGCAGGCAUCAAAAGAAAUAGUCUUGCGCUCAACCAGGAAGUCUGUAAUCAUUUUAAGGGUA [C45A A116G] | 1.32
24 | GUUAACGGUCAUAGGCCAUGGAAACUAGGAGCACCAUUUCGCUGACAGUGAAGAAAUGAACAAAGAAAAUCUGGGCCAGGCAGGCAUCAAAAGAAAUAGUUUUGCGCUCAACCAGAAAGUCUGUAAUCAUUUUAAGGGUA [C45A C101U] | 0.48
25 | GUUAACGGUCAUAGGCCAUGGAAACUAGGAGCACCAUUUCGCUGUCAGUGAAGAAAUGAACAAAGAAAAUCUGGGCCAGGCAGGCAUCAAAAGAGAUAGUCUUGCGCUCAACCAGAAAGUCUGUAAUCAUUUUAAGGGUA [C45U A95G] | 1.99
26 | GUUAACGGUCAUAGGCCAUGGAAACUAGGAGCACCAUUUCGCUGACAGUGAAGAAAUGAACAAAGAAAAUCUGGGCCAGGCAGGCAUCAAGAGAAAUAGUCUUGCGCUCAACCAGAAAGUCUGUAAUCAUUUUAAGGGUA [C45A A91G] | 0.61
27 | GUUAACGGUCAUAGGCCAUGGAAACUAGGAGCACCAUUUCGCUGCUAGUGAAGAAAUGAACAAAGAGAAUCUGGGCCAGGCAGGCAUCAAAAGAAAUAGUCUUGCGCUCAACCAGAAAGUCUGUAAUCAUUUUAAGGGUA [C46U A67G] | 1.56
28 | GUUAACGGUCAUAGGCCAUGGAAACUAGGAGCACCAUUUCGCUGCAAGUGAAGAAAUGAACAAAGAAAAUCUGGGCCAGGCAGGCAUCAAAAGAAAUAGUCUUGCGCUCUACCAGAAAGUCUGUAAUCAUUUUAAGGGUA [C46A A110U] | 1.53
29 | GUUAACGGUCAUAGGCCAUGGAAACUAGGAGCACCAUUUCGCUGCAAGUGAAGAAAUGAACAAAGAAAAUCUGGGCCAGGCAGGCAUCAAAAGAAAUAGUCUUGCGCUCAACCAGGAAGUCUGUAAUCAUUUUAAGGGUA [C46A A116G] | 0.57
30 | GUUAACGGUCAUAGGCCAUGGAAACUAGGAGCACCAUUUCGCUGCUAGUGGAGAAAUGAACAAAGAAAAUCUGGGCCAGGCAGGCAUCAAAAGAAAUAGUCUUGCGCUCAACCAGAAAGUCUGUAAUCAUUUUAAGGGUA [C46U A51G] | 1.42
31 | GUUAACGGUCAUAGGCCAUGGAAACUAGGAGCACCAUUUCGCUGUCAGUGAAGAAAUGAACAAAGAAAAUCUGGGCCAGGCAGGCAUCAAAAGAAUUAGUCUUGCGCUCAACCAGAAAGUCUGUAAUCAUUUUAAGGGUA [C45U A96U] | 1.55
32 | GUUAACGGUCAUAGGCCAUGGAAACUAGGAGCACCAUUUCGCUGUCAGUGAAGAAAUGAACAAAGAAAAUCUGGGCCAGGCGGGCAUCAAAAGAAAUAGUCUUGCGCUCAACCAGAAAGUCUGUAAUCAUUUUAAGGGUA [C45U A82G] | 0.27
33 | GUUAACGGUCAUAGGCCAUGGAAACUAGGAGCACCAUUUCGCUGCUAGUGAAGAAAUGAACAAAGAAAAUCUGGGCCAGGCUGGCAUCAAAAGAAAUAGUCUUGCGCUCAACCAGAAAGUCUGUAAUCAUUUUAAGGGUA [C46U A82U] | 0.14
34 | GUUAACGGUCAUAGGCCAUGGAAACUAGGAGCACCAUUUCGCUGCUAGUGAAGAAAUGAACAAAGAAAAUCUGGGCCAGGCGGGCAUCAAAAGAAAUAGUCUUGCGCUCAACCAGAAAGUCUGUAAUCAUUUUAAGGGUA [C46U A82G] | 0.94
35 | GUUAACGGUCAUAGGCCAUGGAAACUAGGAGCACCAUUUCGCUGCUAGUGAAGAAAUGAACAAAGAAAAUCUGGGCCAGGCCGGCAUCAAAAGAAAUAGUCUUGCGCUCAACCAGAAAGUCUGUAAUCAUUUUAAGGGUA [C46U A82C] | 0.27
36 | GUUAACGGUCAUAGGCCAUGGAAACUAGGAGCACCAUUUCGCUGCUAGUGAGGAAAUGAACAAAGAAAAUCUGGGCCAGGCAGGCAUCAAAAGAAAUAGUCUUGCGCUCAACCAGAAAGUCUGUAAUCAUUUUAAGGGUA [C46U A52G] | 1.09
37 | GUUAACGGUCAUAGGCCAUGGAAACUAGGAGCACCAUUUCGCUGGCAGUGAAGAAAUGAACAAAGAAAAUCUGGGCCAGGCAGGCAUCAAAAGAAAUAGCCUUGCGCUCAACCAGAAAGUCUGUAAUCAUUUUAAGGGUA [C45G U100C] | 1.37
38 | GUUAACGGUCAUAGGCCAUGGAAACUAGGAGCACCAUUUCGCUGACAAUGAAGAAAUGAACAAAGAAAAUCUGGGCCAGGCAGGCAUCAAAAGAAAUAGUCUUGCGCUCAACCAGAAAGUCUGUAAUCAUUUUAAGGGUA [C45A G48A] | 1.5
39 | GUUAACGGUCAUAGGCCAUGGAAACUAGGAGCACCAUUUCGCUGCAAGUGAAGAAAUGAACAAAGAAAAUCUGGGCCGGGCAGGCAUCAAAAGAAAUAGUCUUGCGCUCAACCAGAAAGUCUGUAAUCAUUUUAAGGGUA [C46A A78G] | 0.17
40 | GUUAACGGUCAUAGGCCAUGGAAACUAGGAGCACCAUUUCGCUGUCAGUGAAGAAAUGAACAAAGAAAACCUGGGCCAGGCAGGCAUCAAAAGAAAUAGUCUUGCGCUCAACCAGAAAGUCUGUAAUCAUUUUAAGGGUA [C45U U70C] | 0.82
41 | GUUAACGGUCAUAGGCCAUGGAAACUAGGAGCACCAUUUCGCUGCAAGUGAAGAAAUGAACAAAGAAAAUCUGGGCCAGGCAGGCAUCAAAAGAAAUAGUCUUGCGCUCAACCAGAAAGCCUGUAAUCAUUUUAAGGGUA [C46A U120C] | 0.87
